Data taken from patent US20220396632A1 (VERSEAU THERAPEUTICS, published 2022).
Non-standard residues stand in square brackets, D forms with d. No end group written: not given here. *: point of attachment. Biotin = O=C1N[C@H]2[C@H](CS[C@H]2CCCCC(=O)*)N1; sY = N[C@@H](Cc1ccc(OS(=O)(=O)O)cc1)C(=O)O

What was measured:
Assay in all cases: ELISA, 50 nM mAb
[1] = target: T1, SulfoTyr C4 peptide (not fully specified; Y4, Y7 and Y9 sulfated (SO3); C-terminal biotin)
T1 construct: also called C4 alpha chain peptide; human sulfotyrosinylated C4 peptide
T1 peptide: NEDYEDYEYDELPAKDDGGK
Description: (§1) Recombinant PSGL-1-hFc1 chimera protein consisting of PSGL-1's extracellular domain (ECD) served as a positive control. […] Primary antibody was added (25 ul per well) in duplicate at 50 nM in assay buffer (blocking buffer containing 0.05% Tween®20) into test and control (just blocked) wells and the plate incubated for 45 min at 37° C.

[2] = target: T2, Sulfotyr fibrinogen γ peptide (not fully specified; Y8 and Y12 sulfated (SO3); C-terminal biotin)
T2 construct: also called Fibrinogen gamma peptide; human sulfotyrosinylated fibrinogen peptide
T2 peptide: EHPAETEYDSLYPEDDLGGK
Description: as §1

[3] = target: T3, Recombinant human PSGL-1(ECD)-hFc1 (R&D Systems, Cat. 3345-PS) (human, UniProt Q14242 42-305)
T3 construct: Bought; Gln42-Val295 counted on AAC50061; also called PSGL-1-Fc; PSGL-1-hFc1 chimera; not shown: human IgG1 Fc, Pro100-Lys330
T3 sequence: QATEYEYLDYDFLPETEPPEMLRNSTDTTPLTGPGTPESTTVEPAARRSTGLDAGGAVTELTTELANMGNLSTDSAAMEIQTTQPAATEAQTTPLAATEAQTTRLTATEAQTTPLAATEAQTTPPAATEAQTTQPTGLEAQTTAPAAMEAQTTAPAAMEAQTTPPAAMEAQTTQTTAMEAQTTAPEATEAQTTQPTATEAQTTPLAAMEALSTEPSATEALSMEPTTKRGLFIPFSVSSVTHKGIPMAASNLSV
Description: as §1

[4] = target: T4, Human complement C4 protein (Millipore Sigma, Cat. 204886) (human, UniProt P0C0L4 20-675; P0C0L4 680-1446; P0C0L4 1454-1744, limits assumed, natural sulfotyrosines)
T4 construct: mature
Description: as §1

[5] = target: T5, Human fibrinogen protein (ThermoFisher, RP-43142) (human, UniProt P02671 20-629; P02675 31-491; P02679 27-453, limits assumed, natural sulfotyrosines)
T5 construct: mature; Native dimer with 3 pairs of non-identical chains; also called gamma-fibrinogen; γ fibrinogen protein
T5 sequence (looked up) 1: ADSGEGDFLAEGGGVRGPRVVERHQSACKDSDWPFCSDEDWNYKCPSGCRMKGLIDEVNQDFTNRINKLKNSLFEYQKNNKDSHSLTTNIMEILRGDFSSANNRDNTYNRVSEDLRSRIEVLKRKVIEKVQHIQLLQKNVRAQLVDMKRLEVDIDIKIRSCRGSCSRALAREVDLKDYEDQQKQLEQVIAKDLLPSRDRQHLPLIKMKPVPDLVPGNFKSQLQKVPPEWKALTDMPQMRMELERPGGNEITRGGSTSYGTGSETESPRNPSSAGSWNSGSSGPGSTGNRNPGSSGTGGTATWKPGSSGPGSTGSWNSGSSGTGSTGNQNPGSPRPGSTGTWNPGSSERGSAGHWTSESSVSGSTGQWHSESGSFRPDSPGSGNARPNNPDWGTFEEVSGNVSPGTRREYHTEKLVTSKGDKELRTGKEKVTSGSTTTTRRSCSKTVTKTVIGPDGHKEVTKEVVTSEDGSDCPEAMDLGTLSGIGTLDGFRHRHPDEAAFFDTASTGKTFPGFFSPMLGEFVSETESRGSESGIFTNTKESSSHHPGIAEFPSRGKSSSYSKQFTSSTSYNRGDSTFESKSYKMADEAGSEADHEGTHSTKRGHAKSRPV
T5 sequence (looked up) 2: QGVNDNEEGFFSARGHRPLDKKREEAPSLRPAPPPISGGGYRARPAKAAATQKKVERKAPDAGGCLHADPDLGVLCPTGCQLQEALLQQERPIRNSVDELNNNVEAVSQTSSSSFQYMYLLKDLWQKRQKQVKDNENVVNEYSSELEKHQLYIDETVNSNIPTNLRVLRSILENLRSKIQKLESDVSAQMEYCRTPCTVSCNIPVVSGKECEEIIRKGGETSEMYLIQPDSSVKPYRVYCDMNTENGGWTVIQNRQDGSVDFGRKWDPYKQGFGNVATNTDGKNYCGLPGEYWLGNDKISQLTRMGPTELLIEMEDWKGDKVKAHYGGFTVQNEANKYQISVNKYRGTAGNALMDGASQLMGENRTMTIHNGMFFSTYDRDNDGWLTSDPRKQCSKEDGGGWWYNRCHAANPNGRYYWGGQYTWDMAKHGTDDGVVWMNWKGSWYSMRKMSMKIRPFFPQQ
T5 sequence (looked up) 3: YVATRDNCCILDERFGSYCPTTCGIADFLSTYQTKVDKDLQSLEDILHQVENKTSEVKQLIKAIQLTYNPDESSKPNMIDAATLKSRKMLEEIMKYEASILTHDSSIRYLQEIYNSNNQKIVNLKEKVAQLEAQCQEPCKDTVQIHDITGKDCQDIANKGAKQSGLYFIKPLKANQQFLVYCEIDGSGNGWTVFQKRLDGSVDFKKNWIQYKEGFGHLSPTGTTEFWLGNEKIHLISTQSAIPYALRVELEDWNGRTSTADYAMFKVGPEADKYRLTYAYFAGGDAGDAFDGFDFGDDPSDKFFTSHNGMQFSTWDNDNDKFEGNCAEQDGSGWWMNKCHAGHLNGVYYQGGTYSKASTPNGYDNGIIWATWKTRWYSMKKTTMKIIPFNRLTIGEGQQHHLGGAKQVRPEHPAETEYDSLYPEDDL
Description: as §1

[6] = target: T6, SulfoCCK biotin peptide (human)
T6 construct: also called sulfotyrosine CCK peptide
T6 peptide: SHRISDRD[sY]MGWMDFGGK(Biotin)
Description: as §1

[7] = target: T7, Sulfotyrosine CCR2b biotin peptide (human)
T7 construct: also called CCR2b peptide
T7 peptide: TTFFD[sY]D[sY]GAPSHGGK(Biotin)
Description: as §1

[8] = target: T8, Sulfotyrosine D6 biotin peptide (human)
T8 construct: also called D6 peptide
T8 peptide: ENSSFY[sY][sY]D[sY]LDEVAFGGK(Biotin)
Description: as §1

T4 sequence (P0C0L4 20-675 limits assumed, form in doubt, chain 1 of 3): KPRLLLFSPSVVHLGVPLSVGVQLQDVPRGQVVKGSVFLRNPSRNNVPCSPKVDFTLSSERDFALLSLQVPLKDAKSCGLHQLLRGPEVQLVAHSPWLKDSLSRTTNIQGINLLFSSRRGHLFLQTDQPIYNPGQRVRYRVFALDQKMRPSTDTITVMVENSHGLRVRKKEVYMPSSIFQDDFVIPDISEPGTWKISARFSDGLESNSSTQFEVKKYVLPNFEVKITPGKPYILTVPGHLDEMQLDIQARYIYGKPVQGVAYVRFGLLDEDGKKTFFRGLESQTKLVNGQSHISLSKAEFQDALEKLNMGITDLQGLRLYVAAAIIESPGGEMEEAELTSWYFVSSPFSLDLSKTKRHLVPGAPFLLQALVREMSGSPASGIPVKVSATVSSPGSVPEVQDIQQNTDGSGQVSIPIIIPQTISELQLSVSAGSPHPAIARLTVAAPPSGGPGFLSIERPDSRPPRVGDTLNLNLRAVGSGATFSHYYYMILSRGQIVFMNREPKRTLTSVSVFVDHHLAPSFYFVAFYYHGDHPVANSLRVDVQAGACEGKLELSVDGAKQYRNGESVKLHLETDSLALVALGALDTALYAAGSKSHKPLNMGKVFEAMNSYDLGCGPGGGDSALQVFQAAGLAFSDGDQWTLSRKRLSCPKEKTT
T4 sequence (P0C0L4 680-1446 limits assumed, form in doubt, chain 2 of 3): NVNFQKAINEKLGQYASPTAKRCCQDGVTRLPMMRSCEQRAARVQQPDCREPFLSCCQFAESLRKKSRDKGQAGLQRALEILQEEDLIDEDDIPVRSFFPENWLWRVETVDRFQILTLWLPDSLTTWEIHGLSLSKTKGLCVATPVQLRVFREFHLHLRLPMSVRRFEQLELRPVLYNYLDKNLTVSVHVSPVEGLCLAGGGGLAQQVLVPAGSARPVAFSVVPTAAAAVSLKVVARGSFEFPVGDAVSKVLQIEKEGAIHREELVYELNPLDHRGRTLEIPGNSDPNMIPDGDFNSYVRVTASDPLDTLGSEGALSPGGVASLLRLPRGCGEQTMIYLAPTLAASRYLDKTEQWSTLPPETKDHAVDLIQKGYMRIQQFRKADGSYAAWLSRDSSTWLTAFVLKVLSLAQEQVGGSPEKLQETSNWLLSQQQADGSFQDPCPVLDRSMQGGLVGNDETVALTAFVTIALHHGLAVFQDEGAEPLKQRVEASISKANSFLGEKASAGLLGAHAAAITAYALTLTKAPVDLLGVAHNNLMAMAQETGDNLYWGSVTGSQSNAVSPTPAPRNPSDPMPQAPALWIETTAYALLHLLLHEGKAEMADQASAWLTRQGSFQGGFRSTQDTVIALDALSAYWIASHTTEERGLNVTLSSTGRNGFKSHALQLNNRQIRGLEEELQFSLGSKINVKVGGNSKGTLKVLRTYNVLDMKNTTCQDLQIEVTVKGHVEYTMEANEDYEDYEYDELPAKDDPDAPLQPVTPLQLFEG
T4 sequence (P0C0L4 1454-1744 limits assumed, form in doubt, chain 3 of 3): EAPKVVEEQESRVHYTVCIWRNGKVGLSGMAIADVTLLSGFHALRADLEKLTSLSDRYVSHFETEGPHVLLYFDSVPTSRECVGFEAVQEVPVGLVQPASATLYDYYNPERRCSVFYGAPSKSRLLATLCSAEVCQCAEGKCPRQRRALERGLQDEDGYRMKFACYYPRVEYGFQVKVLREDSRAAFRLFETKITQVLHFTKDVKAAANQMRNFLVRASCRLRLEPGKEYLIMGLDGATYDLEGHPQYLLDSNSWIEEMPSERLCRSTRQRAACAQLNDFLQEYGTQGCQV

Binder	binding normalized to PSGL-1 [1]	binding normalized to PSGL-1 [2]	A450nm [3] [A450nm]	binding normalized to PSGL-1 [4]	binding normalized to PSGL-1 [5]	binding normalized to PSGL-1 [6]	binding normalized to PSGL-1 [7]	binding normalized to PSGL-1 [8]	binding result [5]
05D01 (antibody, V domains shown) VH: QVTLRESGGALVQPGGSLRLSCAASGFPLRSNAMTWVRQAPGKGLEWVSDIRGNGASTYYADSVKGRFTISRDDSNNILFLQMNSLRAEDTAVYYCVGHGSSSYWGQGTLVTVSS VL: DVVMTQSPLSLPVTLGQPASISCRSSQSLVYRDGNIYLNWFQQRPGQSPRRLIYKVSNRDSGVPDRFSGSGSGTDFTLKISRVEAEDVGVYYCMQLTHWPPGFAQGTKLEIK	0.11	0.89	2.33	0.08	0.07	0.3	0.17	0.84	–
10F01 (antibody, IgG4, V domains shown) VH: EVQLVQSGGGLVQPGGSLRLSCAASGFTFSSYAMSWVRQAPGKGLEWVSALRGGDGGTYHADSVKGRFTISGDSSKNTLYLQMNSLRAEDTAVYYCARRMVGAAYAFDIWGQGTMVTVSS VL: LPVLTQPHSVSESPGKTVTISCTRSSGSIADNFVQWYRQRPGSAPTTVIYEGDQRPSGVPGRFSGSIDSSSNSASLTISGLQTDDEADYYCQSFDSYNRRTHVVFGGGTKLTVL	0.17	0.06	2.1	0.06	0.01	0.03	0.03	0.04	no binding (tested: 50 nM)
03D07 (antibody, IgG4, V domains shown) VH: EVKLLESGGGLVQPGGSLRLSCAASGFTFSSYALSWVRQAPGKGLEWVSAISGSGGNTYYADSVKGRFTISRDNSKNTLYLQMNSLRAEDTAVYYCAKVVGATNYWGQGTLVTVSS VL: DIVMTQTPLSLPVTLGQPASISCRSSQSLVYSDGHTYLSWFHQRPGQSPRRLIYKVSIRDSGVPDRFSGSGSGTDFTLKISRVEAEDVGVYYCMQRLQIPLTFGGGTKVEIK	0.71	0.49	2.25	0.53	0.06	0.08	0.16	0.28	–
09D04 (antibody, IgG4, V domains shown) VH: QVQLQQSGGGLVQPGGSLTLSCVGSGFDFRSYAMSWVRQAPGKGLEWVSGINNSGSKTYYADFVKGRFSVSRDNSKNIVWLRMRSLRAEDTAVYYCARRTFGPPHAWGQGTMVTVSS VL: DVVMTQSPLSLPVTPGEPASISCRSSQSLLHSNGYTYLEWYLHKPGQSPQLLIYLGSNRASGVPDRFSGSGSGTDFTLKISRVEAEDVGVYYCMHSLHIPFTFGPGTKVDIK	0.4	0.49	2.66	0.61	0.25	0.53	0.37	0.75	–
05H03 (antibody, IgG4, V domains shown) VH: QVQLQQSGGGLVQPGGSLTLSCVGSGFDFRSYAMSWVRQAPGKGLEWVSGINNSGSKTYYADFVKGRFSVSRDNSKNIVWLRMRSLRAEDTAVYYCARRTFGPPHAWGQGTMVTVSS VL: DIVMTQSPLSLSVTPGEPASISCRSSQSLLHSNGYKYLDWYLQKPGQSPQLLIYMGSNRASGVPDRFSGSGSGTDFTLKISRVEAEDVGVYYCMQGLQSPLTFGGGTKVEIE	0.49	0.68	2.58	0.58	0.29	0.74	0.45	0.8	–
11D10 (antibody, IgG4, V domains shown) VH: EVKLLESGGGLVQPGGSLRLSCAVSGFTFSTSAMIWVRQAPGKGLEWVSFISGSTSNTYYADSVKGRFTISRDNSKNTLYLQMNGLTAEDTAVYYCARGTAAATWGQGALVTVSS VL: not shown	0.07	0.26	2.38	0.09	0.03	0.05	0.04	0.08	–
20I15 (antibody, V domains shown, From mouse immunisation; only variable domains given; also called 20115) VH: EVKLVESGGGLVQPGGSLSLSCAASGFTFTDYYMSWVRQPPGKALEWLGFIRNKANGYTTEYSASVKGRFTISRDNSQSILYLQMNALRAEDSATYYCARTYLRRGYFDVWGTGTTVTVSS VL: DIVLTQSPASLAVSLGQRATISCRASKSVSTSGYSYMHWFQQKPGQPPKLLIYLASNLESGVPARFSGSGSGTDFTLNIHPVEEEDAATYYCQHSRELPLTFGAGTKLELK	0.34	0.37	2.45	0.09	0.06	–	0.21	0.35	–
09A08 (antibody, IgG4, V domains shown) VH: QVQLVQSGAAVKKPGESLKISCKGSGYTFSNYWIGWVRQMPGKGLEWMGIIYPGDSDTRYSPSFQGQVTISADKSISTAYLQWSSLKASDTAMYYCARHIVGPPKSAFDIWGQGTMVTVSS VL: DIVMTQTPLSLPVTLGQPASISCSSSQGLQKRDGNTYLNWFQQRPGQSPRRLIYKVSNRDSGVPDRFSGSGSGTDFTLKISRVEAEDVGVYYCMQGTHWPWTFGQGTRVEIK	0.54	0.14	2.49	0.22	0.05	0.08	0.08	0.6	–
